The target in one assay is T1, Human IL-33-his (human, UniProt O95760 112-270, biotinylated with EZ-Link NHS-Biotin where used as IL-33-his-biotin).
T1 construct: Used plain (SPR, cell assays) and biotinylated (ELISA); also called IL-33-his-biotin
T1 sequence: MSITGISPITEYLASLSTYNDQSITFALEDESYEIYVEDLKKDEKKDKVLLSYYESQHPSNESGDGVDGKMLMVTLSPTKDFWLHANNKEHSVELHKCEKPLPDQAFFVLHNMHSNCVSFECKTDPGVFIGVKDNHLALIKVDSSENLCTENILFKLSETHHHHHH
Put plainly: indirect ELISA, biotinylated IL-33-his on streptavidin plate. Here is the method:
The binding ability of murine antibody to human IL-33 protein was determined by indirect enzyme-linked immunosorbent assay (ELISA). The specific methods were as follows: The plate was pre-coated with biotin-avidin (SA) which was diluted in coating solution (50 mM carbonate coating buffer, pH 9.6) to 2 μg/ml at 4° C. overnight, then the plate was blocked with 5% skim milk powder at 37° C. for 2 hours and stored at −80° C. for later use. Biotinylated recombinant human IL-33-his protein was diluted to 0.5 μg/ml in coating solution (50 mM carbonate coating buffer, pH 9.6) and was added at 100 μl/well to the pre-coated SA plate, 37° C., 0.5 h. After washing the plate with PBST for 3 times, the antibodies to be tested were diluted by gradient with 1% BSA buffer and added into the blocked plate at 100 μl/well, and incubated at 37° C. for 1 hour. The plate was washed with PBST for 3 times, and the HRP-labeled goat anti-mouse IgG was added and placed at 37° C. for 30 min. After washing the plate with PBST for 3 times, the plate was patted on the absorbent paper to remove residual droplets as far as possible. […] OD values were read at 450 nm on the microplate reader to analyze the binding ability of the antibodies to be tested to the target antigen human IL-33-his.

The next assay concerns the target T2, Pep1 (human, N-terminal biotin).
T2 construct: Synthetic 20-mer of human IL-33
T2 peptide: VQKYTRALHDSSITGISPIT
Nature of the assay: ELISA, biotinylated peptide on streptavidin plate, antibody 10 µg/mL, well 1. The protocol: (§1) To determine the binding activity of antibody to each polypeptide fragment, the ELISA plate was pre-coated by biotin-avidin (SA) which was diluted in coating solution (50 mM carbonate coating buffer, pH 9.6) to 2 μg/ml at 4° C. overnight. The plate was washed with PBST for 3 times, and then blocked with 2% BSA prepared in PBS at room temperature for 2 h with 200 μL/well. The plate was washed once with PBST, and 864F3 and 874F7 with final concentrations of 10 μg/mL were added at 100 μL/well, respectively, and the plate was incubated at room temperature for 1 h. The plate was washed with PBST for 3 times, and the goat anti-mouse IgG labeled by HRP was added and placed at 37° C. for 30 min. After washing the plate with PBST for 3 times, the plate was patted on the absorbent paper to remove residual droplets as far as possible. 100 μl TMB developing solution was added to each well, and the plate was placed at room temperature (20±5° C.) for 5 minutes away from light; 50 μl 2M H₂SO₄ terminating solution was added to each well to terminate the substrate reaction. OD values were read at 450 nm on the microplate reader to analyze the binding ability of the antibody to each polypeptide fragment. The experimental results are shown in […]

In the next assay the target is T3, Pep2 (human, N-terminal biotin).
T3 construct: Synthetic 20-mer of human IL-33
T3 peptide: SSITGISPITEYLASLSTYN
The assay is described as above. The protocol: as §1

In another assay the target is T4, Pep3 (human, N-terminal biotin).
T4 construct: Synthetic 20-mer of human IL-33
T4 peptide: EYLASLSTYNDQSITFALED
Described as above. Here is the method:
as §1

In a further assay the target is T5, Pep4 (human, N-terminal biotin).
T5 construct: Synthetic 20-mer of human IL-33
T5 peptide: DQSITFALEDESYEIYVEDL
The assay is described as above. Here is the method:
as §1

In another assay the target is T6, Pep5 (human, N-terminal biotin).
T6 construct: Synthetic 20-mer of human IL-33
T6 peptide: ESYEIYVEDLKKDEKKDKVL
The assay is described as above. Here is the method:
as §1

The next assay concerns the target T7, Pep6 (human, N-terminal biotin).
T7 construct: Synthetic 20-mer of human IL-33
T7 peptide: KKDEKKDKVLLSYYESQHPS
The description is as above. Here is the method: as §1

A further assay deals with T8, Pep7 (human, N-terminal biotin).
T8 construct: Synthetic 20-mer of human IL-33
T8 peptide: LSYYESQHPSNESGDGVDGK
The description is as above. Here is the method: as §1

The next assay has as its target T9, Pep8 (human, N-terminal biotin).
T9 construct: Synthetic 20-mer of human IL-33
T9 peptide: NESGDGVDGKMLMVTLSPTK
Described as above. Here is the method:
as §1

For another assay, the target named is T10, Pep9 (human, N-terminal biotin).
T10 construct: Synthetic 20-mer of human IL-33
T10 peptide: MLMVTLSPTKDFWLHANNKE
The description is as above. Here is the method:
as §1

For a further assay, the target named is T11, Pep10 (human, N-terminal biotin).
T11 construct: Synthetic 20-mer of human IL-33
T11 peptide: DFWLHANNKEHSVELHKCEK
Described as above. The protocol:
as §1

A further assay has as its target T12, Pep11 (human, N-terminal biotin).
T12 construct: Synthetic 20-mer of human IL-33
T12 peptide: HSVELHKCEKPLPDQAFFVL
The description is as above. Here is the method: as §1

The target in another assay is T13, Pep12 (human, N-terminal biotin).
T13 construct: Synthetic 20-mer of human IL-33
T13 peptide: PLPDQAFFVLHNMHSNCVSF
The assay is described as above. The protocol:
as §1

For a further assay, the target named is T14, Pep13 (human, N-terminal biotin).
T14 construct: Synthetic 20-mer of human IL-33
T14 peptide: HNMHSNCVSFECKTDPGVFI
The description is as above. The protocol:
as §1

For a further assay, the target named is T15, Pep14 (human, N-terminal biotin).
T15 construct: Synthetic 20-mer of human IL-33
T15 peptide: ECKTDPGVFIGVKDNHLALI
Described as above. Here is the method:
as §1

A further assay concerns the target T16, Pep15 (human, N-terminal biotin).
T16 construct: Synthetic 20-mer of human IL-33
T16 peptide: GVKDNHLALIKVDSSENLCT
Described as above. The protocol: as §1

Another assay concerns the target T17, Pep16 (human, N-terminal biotin).
T17 construct: Synthetic 20-mer of human IL-33
T17 peptide: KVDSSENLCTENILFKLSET
Described as above. Here is the method:
as §1

B1: 874F7 (antibody, V domains shown)
VH: QVQLKESGPGLVAPSHSLSITCNVSGFSLSKYGVHWIRQIPGRGLDWLGVLRAGGSTGYNSALMSRLSISKDSSKSQVFLKMNDLRTDDTAVYFCVRDHYYYSSYGGFVYWGQGTLVTVSA
VL: DIQMTQSPASQSASLGESVTITCLASQTIGAWLAWYRQQPGKSPQLLIYAATRLADGVPSRFSGSGSGTEFSFKINNLQAEDFVSYYCQQLDSSPYTFGGGTRLEM
notes: Murine hybridoma antibody purified on Protein G; also called murine antibody 874F7
In turn, B1 showed an EC50 with Human IL-33-his of 0.11 nM. Moreover, the OD450 was 0.074 OD450 in the assay with Pep1; 0.056 OD450 in the assay with Pep2; 0.053 OD450 with Pep3; 0.05 OD450 in the assay with Pep4; 0.05 OD450 with Pep5; 1.04 OD450 in the assay with Pep6. For the same molecule, the OD450 with Pep7 is 0.055 OD450; with Pep8, 0.053 OD450; with Pep9, 0.065 OD450; with Pep10 it was 0.053 OD450; in the assay with Pep11 it was 0.056 OD450; with Pep12, 0.056 OD450. In addition, the OD450 with Pep13 amounted to 0.054 OD450; in the assay with Pep14, 0.059 OD450; with Pep15, 0.055 OD450; in the assay with Pep16 it was 0.049 OD450.
